# According to patent US20090104657A1 (BASF AKTIENGESELLSCHAFT, published 2009):
# B1: protease according to the invention from Burkholderia glumae PG1, expressed from pETpro in E. coli BL21DE3 as a fusion protein with C-terminal 6xHis-tag (enzyme)
# chain: MQQRGGSMSKKIAVLAVDEFEDSELVEPLRALRKAGAEVDVISQQAGEVKGFRHADKGEAVKVDRTFDEVREGEFDALLLPGGLLRGDNRMLPAAREFVTAGKPVFAICHGGWLLGSSGVINGRKLTAWPSLQDDVKNAGGEFYDQEVVRDKDQLITSRKPDDLPAFNREALRLLGAGA
# notes: also called putative protease; ThiJ/PfpI protein; not shown: C-terminal 6xHis-tag from vector pET22b
# Target: the molecule itself
# Assay: native polyacrylamide gel electrophoresis; self-association of the subunit
protein,measurement,value
B1,binding result,binds
